From the supplement of paper PMC11780869 come the findings set out here.

For the data set, the system named is Bacillus subtilis. Briefly: cleaved RNA product abundance (RNA/gDNA barcode ratio) relative to median wild-type variant (ratio to wild type); higher = more accumulation of the downstream cleavage product. The settings on record: cleavage site: cggR-gapA (positions -7 to +36 mutated). An outline of the steps:
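Cleaved product abundance is expressed as the RNA:gDNA barcode ratio per construct, scaled to the median construct carrying the unmutated site. The constructs were barcoded, mutagenized RNase Y cleavage-site windows in truncated aprE or tetM reporter mRNAs integrated into the B. subtilis chromosome. Cultures grew in LB at 37°C from OD600 0.0003 to 0.3 before cleaved RNA was gel-selected and barcode-sequenced.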

Setting [1] is: experiment (reporter, strain, medium): exp 4a: truncated aprE reporter, strain BJT201 with 2% xylose (RNase J1 expressed).
Where [2] appears, read: experiment (reporter, strain, medium): exp 2b: truncated aprE reporter, strain BJT200.
The mark [3] stands for this setting: experiment (reporter, strain, medium): exp 6: tetM reporter, strain 168.

In the case of “ACAGACGAAGGAGCCGCAAAGAAGTTATTAAGGGATGAATAATCCCTCAGAATAAATATCTCTCACTTATTTAAA”, the “cleaved RNA product abundance” value under setting [1] was 0.197.
As for “ACAGACGAAGGAGCCGCAAAGAAGTTATTAAGGGATGAATAATCCCTCAGGATAAATATCTCTCACTTATTTAAA”, the “cleaved RNA product abundance” value under setting [2] came to 0.131.
As for “ACAGACGAAGGAGCCGCAAAGAAGTTATTAAGGGATGAATAATCCCTCAGTATAAATATCTCTCACTTATTTAAA”, the “cleaved RNA product abundance” value under setting [2] was 0.215, the “cleaved RNA product abundance” value under setting [1] is 0.305 and the “cleaved RNA product abundance” value under setting [3] is 0.259.
Regarding “ACAGACGAAGGAGCCGCAAAGAAGTTATTAAGGGATGAATAATCCCTCAGTATATATATCTCTCACTTATTTAAA”, the “cleaved RNA product abundance” value under setting [1] stood at 0.242.
The same measure, in the same setting: in the case of “ACAGACGAAGGAGCCGCAAAGAAGTTATTAAGGGATGAATAATCCCTCATAATAAATATCTCTCACTTATTTAAA” it was 0.554.
With “ACAGACGAAGGAGCCGCAAAGAAGTTATTAAGGGATGAATAATCCCTCATATAAATATCTCTCACTTATTTAAAG”, the “cleaved RNA product abundance” value reads like this: under setting [2], 0.394; under setting [1], 0.256.
With “ACAGACGAAGGAGCCGCAAAGAAGTTATTAAGGGATGAATAATCCCTCATCATAAATATCTCTCACTTATTTAAA”, the “cleaved RNA product abundance” value under setting [2] stood at 0.192 and the “cleaved RNA product abundance” value under setting [1] stood at 0.115.
Consider “ACAGACGAAGGAGCCGCAAAGAAGTTATTAAGGGATGAATAATCCCTCATTAAAAATATCTCTCACTTATTTAAA”, for which the “cleaved RNA product abundance” value under setting [2] is 0.116.
For the sequence “ACAGACGAAGGAGCCGCAAAGAAGTTATTAAGGGATGAATAATCCCTCATTATAAATAACTCTCACTTATTTAAA”, the “cleaved RNA product abundance” value under setting [1] is 0.248.
Turning to “ACAGACGAAGGAGCCGCAAAGAAGTTATTAAGGGATGAATAATCCCTCATTATAAATATCTCTCACTTATTTAAA”, the “cleaved RNA product abundance” value reads like this: under setting [2], 0.263; under setting [1], 0.383; under setting [3], 0.395.
“ACAGACGAAGGAGCCGCAAAGAAGTTATTAAGGGATGAATAATCCCTCATTATAAATCTCTCTCACTTATTTAAA”: under setting [2], the “cleaved RNA product abundance” value worked out at 0.236.
With “ACAGACGAAGGAGCCGCAAAGAAGTTATTAAGGGATGAATAATCCCTCATTTTAAATATCTCTCACTTATTTAAA”, the “cleaved RNA product abundance” value under setting [1] turned out to be 0.191.
“ACAGACGAAGGAGCCGCAAAGAAGTTATTAAGGGATGAATAATCCCTCCAAATAAATATCTCTCACTTATTTAAA”: the “cleaved RNA product abundance” value runs as follows: under setting [2], 0.239; under setting [1], 0.313.
“ACAGACGAAGGAGCCGCAAAGAAGTTATTAAGGGATGAATAATCCCTCCACATAAATATCTCTCACTTATTTAAA”: under setting [2], the “cleaved RNA product abundance” value came out at 0.108.
As for “ACAGACGAAGGAGCCGCAAAGAAGTTATTAAGGGATGAATAATCCCTCCATATAAATATCTCTCACTTATTTAAA”, the “cleaved RNA product abundance” value under setting [2] was found to be 0.243, the “cleaved RNA product abundance” value under setting [1] was found to be 0.341 and the “cleaved RNA product abundance” value under setting [3] is 0.34.
For “ACAGACGAAGGAGCCGCAAAGAAGTTATTAAGGGATGAATAATCCCTCCATATAAATTTCTCTCACTTATTTAAA”, the “cleaved RNA product abundance” value under setting [1] amounted to 0.23.
On the same count and under the same terms, in the case of “ACAGACGAAGGAGCCGCAAAGAAGTTATTAAGGGATGAATAATCCCTCCCTATAAATATCTCTCACTTATTTAAA” it was 0.212.
Regarding “ACAGACGAAGGAGCCGCAAAGAAGTTATTAAGGGATGAATAATCCCTCGATATAAATATCTCTCACTTATTTAAA”, the “cleaved RNA product abundance” value by setting is: under setting [2], 0.348; under setting [1], 0.419; under setting [3], 0.589.
Regarding “ACAGACGAAGGAGCCGCAAAGAAGTTATTAAGGGATGAATAATCCCTCGTTATAAATATCTCTCACTTATTTAAA”, the “cleaved RNA product abundance” value reads like this: under setting [2], 0.097; under setting [1], 0.157.
For “ACAGACGAAGGAGCCGCAAAGAAGTTATTAAGGGATGAATAATCCCTCTAAATAAATATCTCTCACTTATTTAAA” the same measures were 0.36 and 0.429.
Take “ACAGACGAAGGAGCCGCAAAGAAGTTATTAAGGGATGAATAATCCCTCTACATAAATATCTCTCACTTATTTAAA”: under setting [1], the “cleaved RNA product abundance” value stood at 0.441.
For “ACAGACGAAGGAGCCGCAAAGAAGTTATTAAGGGATGAATAATCCCTCTAGATAAATATCTCTCACTTATTTAAA”, the “cleaved RNA product abundance” value under setting [1] was 0.266.
Regarding “ACAGACGAAGGAGCCGCAAAGAAGTTATTAAGGGATGAATAATCCCTCTATATAAACATCTCTCACTTATTTAAA”, the “cleaved RNA product abundance” value under setting [2] worked out at 0.362.
In the case of “ACAGACGAAGGAGCCGCAAAGAAGTTATTAAGGGATGAATAATCCCTCTATATAAATACCTCTCACTTATTTAAA”, the “cleaved RNA product abundance” value under setting [1] came out at 0.407.
“ACAGACGAAGGAGCCGCAAAGAAGTTATTAAGGGATGAATAATCCCTCTATATAAATATCTCTCACTTATTTAAA”: the “cleaved RNA product abundance” value runs as follows: under setting [2], 0.42; under setting [1], 0.489; under setting [3], 0.642.
Consider “ACAGACGAAGGAGCCGCAAAGAAGTTATTAAGGGATGAATAATCCCTCTATATAAATCTCTCTCACTTATTTAAA”, for which, under setting [1], the “cleaved RNA product abundance” value is 0.529.
For the sequence “ACAGACGAAGGAGCCGCAAAGAAGTTATTAAGGGATGAATAATCCCTCTATATAATTATCTCTCACTTATTTAAA”, the “cleaved RNA product abundance” value reads like this: under setting [2], 0.29; under setting [1], 0.309.
For “ACAGACGAAGGAGCCGCAAAGAAGTTATTAAGGGATGAATAATCCCTCTATATACATATCTCTCACTTATTTAAA” the same measures were 0.248 and 0.226.
Regarding “ACAGACGAAGGAGCCGCAAAGAAGTTATTAAGGGATGAATAATCCCTCTATATATATATCTCTCACTTATTTAAA”, under setting [1], the “cleaved RNA product abundance” value is 0.418.
With “ACAGACGAAGGAGCCGCAAAGAAGTTATTAAGGGATGAATAATCCCTCTATCTAAATATCTCTCACTTATTTAAA”, the “cleaved RNA product abundance” value under setting [1] worked out at 0.101.
As to “ACAGACGAAGGAGCCGCAAAGAAGTTATTAAGGGATGAATAATCCCTCTATGTAAATATCTCTCACTTATTTAAA”, the “cleaved RNA product abundance” value is, setting by setting: under setting [2], 0.16; under setting [1], 0.0964.
As to “ACAGACGAAGGAGCCGCAAAGAAGTTATTAAGGGATGAATAATCCCTCTCTATAAATATCTCTCACTTATTTAAA”, under setting [1], the “cleaved RNA product abundance” value is 0.372.
On to “ACAGACGAAGGAGCCGCAAAGAAGTTATTAAGGGATGAATAATCCCTCTGTATAAATATCTCTCACTTATTTAAA”, for which the “cleaved RNA product abundance” value under setting [2] stood at 0.163 and the “cleaved RNA product abundance” value under setting [1] is 0.224.
For the sequence “ACAGACGAAGGAGCCGCAAAGAAGTTATTAAGGGATGAATAATCCCTGAAAATAAATATCTCTCACTTATTTAAA”, under setting [1], the “cleaved RNA product abundance” value was determined as 0.615.
The same measure, in the same setting: the value for “ACAGACGAAGGAGCCGCAAAGAAGTTATTAAGGGATGAATAATCCCTGAACATAAATATCTCTCACTTATTTAAA” was 0.242; that for “ACAGACGAAGGAGCCGCAAAGAAGTTATTAAGGGATGAATAATCCCTGAAGATAAATATCTCTCACTTATTTAAA” was 0.387.
For the sequence “ACAGACGAAGGAGCCGCAAAGAAGTTATTAAGGGATGAATAATCCCTGAATATAAACATCTCTCACTTATTTAAA”, the “cleaved RNA product abundance” value under setting [1] came out at 0.413.
The same measure, in the same setting: in the case of “ACAGACGAAGGAGCCGCAAAGAAGTTATTAAGGGATGAATAATCCCTGAATATAAATAGCTCTCACTTATTTAAA” it was 0.256.
With “ACAGACGAAGGAGCCGCAAAGAAGTTATTAAGGGATGAATAATCCCTGAATATAAATATCTCTCACTTATTTAAA”, the “cleaved RNA product abundance” value under setting [2] was determined as 0.566, the “cleaved RNA product abundance” value under setting [1] came out at 0.684 and the “cleaved RNA product abundance” value under setting [3] came to 0.675.
With “ACAGACGAAGGAGCCGCAAAGAAGTTATTAAGGGATGAATAATCCCTGAATATATATATCTCTCACTTATTTAAA”, the “cleaved RNA product abundance” value under setting [2] is 0.477 and the “cleaved RNA product abundance” value under setting [1] stood at 0.598.
Consider “ACAGACGAAGGAGCCGCAAAGAAGTTATTAAGGGATGAATAATCCCTTAAAATAAATATCTCTCACTTATTTAAA”, for which the “cleaved RNA product abundance” value under setting [1] was 0.862.
“ACAGACGAAGGAGCCGCAAAGAAGTTATTAAGGGATGAATAATCCCTTAATAAAAATATCTCTCACTTATTTAAA”: the “cleaved RNA product abundance” value under setting [3] amounted to 0.227.
Take “ACAGACGAAGGAGCCGCAAAGAAGTTATTAAGGGATGAATAATCCCTTAATATAAACATCTCTCACTTATTTAAA”: the “cleaved RNA product abundance” value by setting is: under setting [2], 0.304; under setting [1], 0.216.
Regarding “ACAGACGAAGGAGCCGCAAAGAAGTTATTAAGGGATGAATAATCCCTTAATATAAATAACTCTCACTTATTTAAA”, the “cleaved RNA product abundance” value under setting [1] worked out at 0.433.
Consider “ACAGACGAAGGAGCCGCAAAGAAGTTATTAAGGGATGAATAATCCCTTAATATAAATATCTCTCACTTATTTAAA”, for which the “cleaved RNA product abundance” value was 0.782 under setting [2], 0.595 under setting [1] and 0.623 under setting [3].
Consider “ACAGACGAAGGAGCCGCAAAGAAGTTATTAAGGGATGAATAATCCCTTAATATAAATATTTCTCACTTATTTAAA”, for which the “cleaved RNA product abundance” value under setting [1] amounted to 0.494.
On the same count and under the same terms, in the case of “ACAGACGAAGGAGCCGCAAAGAAGTTATTAAGGGATGAATAATCCCTTAATATACATATCTCTCACTTATTTAAA” it was 0.232; in that of “ACAGACGAAGGAGCCGCAAAGAAGTTATTAAGGGATGAATAATCCCTTAATATAGATATCTCTCACTTATTTAAA”, 0.866.
Still for that read-out and setting: the value for “ACAGACGAAGGAGCCGCAAAGAAGTTATTAAGGGATGAATAATCCCTTAATATATATATCTCTCACTTATTTAAA” was 0.895.
The same measure, in the same setting: in the case of “ACAGACGAAGGAGCCGCAAAGAAGTTATTAAGGGATGAATAATCCCTTATTATAAATATCTCTCACTTATTTAAA” it was 0.813.
On to “ACAGACGAAGGAGCCGCAAAGAAGTTATTAAGGGATGAATAATCCCTTCAATATAAATATCTCTCACTTATTTAA”, for which, under setting [1], the “cleaved RNA product abundance” value is 0.904.
As for “ACAGACGAAGGAGCCGCAAAGAAGTTATTAAGGGATGAATAATCCCTTTATATAAATATCTCTCACTTATTTAAA”, the “cleaved RNA product abundance” value under setting [2] is 1.14 and the “cleaved RNA product abundance” value under setting [1] stood at 0.977.
